PMC5760745, “Nuclear, Cytosolic, and Surface-Localized Poly(A)-Binding Proteins of Plasmodium yoelii”

Assays:
PyPABP1 [1] = target: T1, PyPABP1 (Plasmodium yoelii 17XNL, UniProt V7PUC0 1-841); experiment: fluorescence polarization; apparent Kd; excess tRNA, 5 mM Mg2+; EMSA/FP: 10 mM Tris-Cl pH 7.5, 5 mM MgCl2, 55 mM KCl, 2 ug tRNA, 1 mM DTT, 0.5 U/ul SUPERase-In, 2.5% glycerol, RT 20 min; ITC: 10 mM HEPES pH 7.5, 100 mM KCl; conditions: protein: recombinant; tags: N-terminal GST (thrombin-cleavable), C-terminal 6xHis (TEV-cleavable); single strand
T1 sequence: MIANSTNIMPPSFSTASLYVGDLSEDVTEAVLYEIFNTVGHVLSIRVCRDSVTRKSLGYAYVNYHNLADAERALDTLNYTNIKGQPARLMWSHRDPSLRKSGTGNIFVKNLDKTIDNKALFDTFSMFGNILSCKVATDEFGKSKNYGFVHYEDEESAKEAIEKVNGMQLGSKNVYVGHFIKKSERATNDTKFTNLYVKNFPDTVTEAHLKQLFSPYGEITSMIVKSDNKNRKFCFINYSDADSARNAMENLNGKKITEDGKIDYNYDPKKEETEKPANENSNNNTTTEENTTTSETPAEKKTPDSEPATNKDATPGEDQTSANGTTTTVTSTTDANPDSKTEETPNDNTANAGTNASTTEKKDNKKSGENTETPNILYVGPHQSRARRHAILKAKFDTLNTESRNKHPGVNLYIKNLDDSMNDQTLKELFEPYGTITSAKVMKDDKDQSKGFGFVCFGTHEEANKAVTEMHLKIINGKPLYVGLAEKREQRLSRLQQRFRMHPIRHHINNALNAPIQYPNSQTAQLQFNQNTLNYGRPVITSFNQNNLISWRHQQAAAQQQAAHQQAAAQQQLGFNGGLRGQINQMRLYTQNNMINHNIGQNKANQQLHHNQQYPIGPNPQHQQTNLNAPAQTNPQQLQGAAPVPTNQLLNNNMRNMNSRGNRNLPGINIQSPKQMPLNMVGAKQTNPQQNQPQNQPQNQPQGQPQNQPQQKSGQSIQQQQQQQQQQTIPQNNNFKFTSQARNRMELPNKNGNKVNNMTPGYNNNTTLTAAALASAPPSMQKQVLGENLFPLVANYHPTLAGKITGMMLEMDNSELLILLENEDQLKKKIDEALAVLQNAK

PyPABP2 [2] = target: T2, PyPABP2 (Plasmodium yoelii, UniProt UPI0004EF7F20 1-199); experiment: as above; conditions: protein: recombinant; tags: N-terminal GST (purified via GST); vector pSL0220 also encodes C-terminal 6xHis; single strand
T2 sequence: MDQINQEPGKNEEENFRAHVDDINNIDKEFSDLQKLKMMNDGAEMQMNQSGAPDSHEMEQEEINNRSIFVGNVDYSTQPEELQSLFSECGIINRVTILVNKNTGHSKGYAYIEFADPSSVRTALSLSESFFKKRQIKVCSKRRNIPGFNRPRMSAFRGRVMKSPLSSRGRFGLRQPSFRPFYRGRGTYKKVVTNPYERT

PyPABP1 [3] = target: T1, PyPABP1; experiment: EMSA; apparent Kd; excess tRNA, 5 mM Mg2+; EMSA/FP: 10 mM Tris-Cl pH 7.5, 5 mM MgCl2, 55 mM KCl, 2 ug tRNA, 1 mM DTT, 0.5 U/ul SUPERase-In, 2.5% glycerol, RT 20 min; ITC: 10 mM HEPES pH 7.5, 100 mM KCl; conditions: protein: recombinant; tags: N-terminal GST (thrombin-cleavable), C-terminal 6xHis (TEV-cleavable); single strand
PyPABP2 [4] = target: T2, PyPABP2; experiment: as above; conditions: protein: recombinant; tags: N-terminal GST (purified via GST); vector pSL0220 also encodes C-terminal 6xHis; single strand
PyPABP1 [5] = target: T1, PyPABP1; experiment: ITC; 5 mM Mg2+; first of two protein preparations; EMSA/FP: 10 mM Tris-Cl pH 7.5, 5 mM MgCl2, 55 mM KCl, 2 ug tRNA, 1 mM DTT, 0.5 U/ul SUPERase-In, 2.5% glycerol, RT 20 min; ITC: 10 mM HEPES pH 7.5, 100 mM KCl; conditions: protein: recombinant; tags: N-terminal GST (thrombin-cleavable), C-terminal 6xHis (TEV-cleavable); single strand
PyPABP1 [6] = target: T1, PyPABP1; experiment: ITC; 5 mM Mg2+; second of two protein preparations; EMSA/FP: 10 mM Tris-Cl pH 7.5, 5 mM MgCl2, 55 mM KCl, 2 ug tRNA, 1 mM DTT, 0.5 U/ul SUPERase-In, 2.5% glycerol, RT 20 min; ITC: 10 mM HEPES pH 7.5, 100 mM KCl; conditions: protein: recombinant; tags: N-terminal GST (thrombin-cleavable), C-terminal 6xHis (TEV-cleavable); single strand

Binder: AAAAAAAAAAAAAAAAAAAAAAAAA (ssRNA) [fluorescein-poly(A) 25-mer]
- Kd (PyPABP1 [1]): 8 nM
- Kd (PyPABP2 [2]): 104 nM

Binder: AAAAAAAAAAAAAAAAAAAAAAAAA (ssRNA) [biotin-poly(A) 25-mer]
- Kd (PyPABP1 [3]): 185 nM
- Kd (PyPABP2 [4]): 108 nM

Binder: AAAAAAAAAAAAAAAAAAAAAAAAA (ssRNA) [poly(A) 25-mer]
- Kd (PyPABP1 [5]): 33 nM
- Kd (PyPABP1 [6]): 48 nM
